Values of other authors, collected in paper PMC3085179.

Target: intermediate affinity IL-2 receptor (Homo sapiens) (UniProt P14784)
Sequence of UniProt P14784 (P14784 27-240, chain 1 of 2): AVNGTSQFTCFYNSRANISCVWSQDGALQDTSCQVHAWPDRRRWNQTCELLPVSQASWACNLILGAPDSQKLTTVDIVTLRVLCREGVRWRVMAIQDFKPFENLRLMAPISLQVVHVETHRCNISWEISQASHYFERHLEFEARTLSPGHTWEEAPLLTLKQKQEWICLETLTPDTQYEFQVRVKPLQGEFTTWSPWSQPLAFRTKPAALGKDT
Sequence of UniProt P14784 (P31785 23-262, chain 2 of 2, further chain): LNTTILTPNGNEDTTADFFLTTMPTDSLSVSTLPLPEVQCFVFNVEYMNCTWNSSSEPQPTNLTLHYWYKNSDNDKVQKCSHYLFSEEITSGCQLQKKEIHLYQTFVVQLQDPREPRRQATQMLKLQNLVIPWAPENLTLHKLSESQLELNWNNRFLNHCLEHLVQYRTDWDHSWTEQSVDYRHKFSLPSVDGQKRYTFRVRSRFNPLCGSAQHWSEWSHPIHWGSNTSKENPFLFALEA

Sequence of IL-2 (P60568 21-153): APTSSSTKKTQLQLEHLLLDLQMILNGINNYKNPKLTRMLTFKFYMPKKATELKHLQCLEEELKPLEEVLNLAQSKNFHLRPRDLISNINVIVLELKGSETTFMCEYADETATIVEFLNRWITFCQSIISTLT

Kd: 1 nM
Substance: IL-2 (from UniProt P60568)
